Earlier results on 11 molecules are cited in patent US6444791B1, “Methods and compositions for the treatment of keratoconus using protease inhibitors” (K-Quay Enterprises, LLC, priority 1999, dated 2002).

Like-named read-outs stand apart in the source and are kept apart here. Non-standard residues stand in square brackets, D forms with d. Residues, ends and D or L forms follow the SMILES beside them. No end group written: not given here. *: point of attachment. Sta = CC(C)C[C@H](N)[C@@H](O)CC(=O)O; Isovaleryl = CC(C)CC(=O)*

Series [1] deals with T1, gelatinase, type IV collagenase (Homo sapiens, UniProt P08253).
T1 construct: host or cells: keratoconus keratocyte culture media (endogenous, secreted)
T1 sequence (P08253 110-660): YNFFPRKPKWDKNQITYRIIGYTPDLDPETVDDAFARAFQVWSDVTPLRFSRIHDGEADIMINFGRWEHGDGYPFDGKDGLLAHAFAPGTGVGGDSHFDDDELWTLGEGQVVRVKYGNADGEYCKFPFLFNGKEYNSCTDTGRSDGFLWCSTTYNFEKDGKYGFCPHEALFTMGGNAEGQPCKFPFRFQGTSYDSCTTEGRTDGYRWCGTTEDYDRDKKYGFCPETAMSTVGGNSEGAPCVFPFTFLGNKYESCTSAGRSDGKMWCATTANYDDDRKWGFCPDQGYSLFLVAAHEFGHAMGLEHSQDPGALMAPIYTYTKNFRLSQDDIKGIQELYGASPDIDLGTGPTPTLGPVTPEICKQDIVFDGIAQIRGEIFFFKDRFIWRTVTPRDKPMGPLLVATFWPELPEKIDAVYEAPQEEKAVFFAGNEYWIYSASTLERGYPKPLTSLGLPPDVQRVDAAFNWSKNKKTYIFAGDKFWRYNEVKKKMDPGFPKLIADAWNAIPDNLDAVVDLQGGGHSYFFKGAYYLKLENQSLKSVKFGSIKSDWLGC
To be noted: keratoconus keratocyte culture media.

Series [2] relates to gelatinolytic and caseinolytic activities. The following applies: in situ zymography, healthy control and keratoconic specimens.
For another series, the target named is T2, proteinase-3 (Homo sapiens, UniProt P24158).
T2 sequence (P24158 28-248): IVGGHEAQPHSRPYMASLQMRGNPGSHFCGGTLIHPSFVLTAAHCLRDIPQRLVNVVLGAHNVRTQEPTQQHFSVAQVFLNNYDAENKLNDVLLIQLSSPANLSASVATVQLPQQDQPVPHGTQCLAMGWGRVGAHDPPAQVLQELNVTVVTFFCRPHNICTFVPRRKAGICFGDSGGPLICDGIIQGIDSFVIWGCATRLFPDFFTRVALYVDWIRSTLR

The next series has as its target T3, cathepsin G (Homo sapiens, UniProt P08311).
T3 sequence (P08311 21-244): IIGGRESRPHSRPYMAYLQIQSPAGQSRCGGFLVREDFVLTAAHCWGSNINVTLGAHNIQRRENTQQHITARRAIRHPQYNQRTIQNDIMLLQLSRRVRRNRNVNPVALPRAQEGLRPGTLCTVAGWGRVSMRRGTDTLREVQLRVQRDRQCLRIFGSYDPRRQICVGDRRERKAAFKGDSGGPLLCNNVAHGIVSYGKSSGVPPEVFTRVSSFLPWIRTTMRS

The test system of a further series is HIV virus. The following applies: cell culture.
In series [3] the target is T4, elastase (Homo sapiens, UniProt P08246).
T4 sequence (P08246 30-267): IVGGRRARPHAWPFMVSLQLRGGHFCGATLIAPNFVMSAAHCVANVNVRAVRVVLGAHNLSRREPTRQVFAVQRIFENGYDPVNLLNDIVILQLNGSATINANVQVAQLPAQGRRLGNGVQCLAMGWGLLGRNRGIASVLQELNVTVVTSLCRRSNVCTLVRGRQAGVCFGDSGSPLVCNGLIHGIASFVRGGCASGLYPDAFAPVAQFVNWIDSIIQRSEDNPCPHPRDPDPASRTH
To be noted: R-type tear fluid; from calculated molar ratios of serpins.

In series [4] the target is T4, elastase.

Consider `O[C@H](CS)[C@H](O)CS` (racemic) [dithiothreitol], for which the “effect on gelatinolytic activity” value in series [1] was “inactivated”. As for `c1cnc2c(c1)ccc1cccnc12` [1, 10-phenanthroline], the “effect on digestion of gelatin and casein” value (“effect on digestion” for short) in series [2] was “failed to block”.

On to `OCCS` [B-mercaptoethanol], for which the “effect on gelatinolytic activity” value in [1] was “inactivated”. In the case of `CC(C)C[C@H](NC(=O)[C@H]1O[C@@H]1C(=O)O)C(=O)NCCCCN=C(N)N` [E-64], the “effect on digestion” value in series [2] was “substantially reduced”. Consider `CC(=O)N[C@@H](CC(C)C)C(=O)N[C@@H](CC(C)C)C(=O)N[C@H](C=O)CCCNC(=N)N` [leupeptin], for which the “effect on digestion” value in series [2] is listed as “substantially reduced”. With `CC(C)CC(=O)N[C@H](C(=O)N[C@H](C(=O)N[C@@H](CC(C)C)[C@@H](O)CC(=O)N[C@@H](C)C(=O)N[C@@H](CC(C)C)[C@@H](O)CC(=O)O)C(C)C)C(C)C` [pepstatin] (Isovaleryl-VV[Sta]A[Sta]-OH), in series [2], the “effect on digestion” value is on record as “failed to block”. On to `O=S(=O)(F)Cc1ccccc1` [phenylmethyl sulfonyl fluoride], for which the “effect on digestion” value in [2] is listed as “substantially reduced”. Further, the “effect on gelatinolytic activity” value in series [1] (lmM) is on record as “not effected”. As to “alp1: α-1 protease inhibitor, a major protease inhibitor in human plasma, glycoprotein of 53 kDa”, the “inhibition of proteinase-3” value with proteinase-3 is reported as “potent inhibitors”. “elafin: protease inhibitor (6-9 kDa), potent inhibitor of proteinase-3 (AQEPVKGPVSTKPGSCPIILIRCAMLNPPNRCLKDTDCPGIKKCCEGSCGMACFVPQ; ends and bridges not checked; cysteine pairing not given here; UniProt P19957 61-117, looked up)”: in the series with proteinase-3, the “inhibition of proteinase-3” value is on record as “potent inhibitors”.

B1: SLPI: secretory leucocyte protease inhibitor, an 11.7 kDa elastase and cathepsin G specific inhibitor (protein, UniProt P03973 26-132, looked up)
Antileukoproteinase: SGKSFKAGVCPPKKSAQCLRYKKPECQSDWQCPGKKRCCPDTCGIKCLDPVDTPNPTRRKPGKCPVTYGQCLMLNPPNFCEMDGQCKRDLKCCMGMCGKSCVSPVKA
With B1, the “cytotoxicity to Staphylococcus aureus” value in the series on Staphylococcus aureus is given as “cytotoxic”. Besides, the “inhibition of cathepsin G” value in the series with cathepsin G is given as “potent inhibitor”. The “effect on transmission and replication of HIV virus” value in the series with HIV virus was “inhibits”. Also, the “share of the total elastase inhibitory activity” value with elastase [3] is reported as not below 95%. In addition, in the series with proteinase-3, the “inhibition of proteinase-3” value is “no capacity to inhibit”. The “cytotoxicity to E. coli” value in the series on E. coli is recorded as “cytotoxic”. In addition, the inhibition of elastase result with elastase [4] is on record as “potent inhibitor”.

B2: α2-M: α2-macroglobulin, high-molecular-weight (718 kD) homotetrameric glycoprotein protease inhibitor (protein, UniProt P01023 24-1474, looked up)
Alpha-2-macroglobulin: SVSGKPQYMVLVPSLLHTETTEKGCVLLSYLNETVTVSASLESVRGNRSLFTDLEAENDVLHCVAFAVPKSSSNEEVMFLTVQVKGPTQEFKKRTTVMVKNEDSLVFVQTDKSIYKPGQTVKFRVVSMDENFHPLNELIPLVYIQDPKGNRIAQWQSFQLEGGLKQFSFPLSSEPFQGSYKVVVQKKSGGRTEHPFTVEEFVLPKFEVQVTVPKIITILEEEMNVSVCGLYTYGKPVPGHVTVSICRKYSDASDCHGEDSQAFCEKFSGQLNSHGCFYQQVKTKVFQLKRKEYEMKLHTEAQIQEEGTVVELTGRQSSEITRTITKLSFVKVDSHFRQGIPFFGQVRLVDGKGVPIPNKVIFIRGNEANYYSNATTDEHGLVQFSINTTNVMGTSLTVRVNYKDRSPCYGYQWVSEEHEEAHHTAYLVFSPSKSFVHLEPMSHELPCGHTQTVQAHYILNGGTLLGLKKLSFYYLIMAKGGIVRTGTHGLLVKQEDMKGHFSISIPVKSDIAPVARLLIYAVLPTGDVIGDSAKYDVENCLANKVDLSFSPSQSLPASHAHLRVTAAPQSVCALRAVDQSVLLMKPDAELSASSVYNLLPEKDLTGFPGPLNDQDNEDCINRHNVYINGITYTPVSSTNEKDMYSFLEDMGLKAFTNSKIRKPKMCPQLQQYEMHGPEGLRVGFYESDVMGRGHARLVHVEEPHTETVRKYFPETWIWDLVVVNSAGVAEVGVTVPDTITEWKAGAFCLSEDAGLGISSTASLRAFQPFFVELTMPYSVIRGEAFTLKATVLNYLPKCIRVSVQLEASPAFLAVPVEKEQAPHCICANGRQTVSWAVTPKSLGNVNFTVSAEALESQELCGTEVPSVPEHGRKDTVIKPLLVEPEGLEKETTFNSLLCPSGGEVSEELSLKLPPNVVEESARASVSVLGDILGSAMQNTQNLLQMPYGCGEQNMVLFAPNIYVLDYLNETQQLTPEIKSKAIGYLNTGYQRQLNYKHYDGSYSTFGERYGRNQGNTWLTAFVLKTFAQARAYIFIDEAHITQALIWLSQRQKDNGCFRSSGSLLNNAIKGGVEDEVTLSAYITIALLEIPLTVTHPVVRNALFCLESAWKTAQEGDHGSHVYTKALLAYAFALAGNQDKRKEVLKSLNEEAVKKDNSVHWERPQKPKAPVGHFYEPQAPSAEVEMTSYVLLAYLTAQPAPTSEDLTSATNIVKWITKQQNAQGGFSSTQDTVVALHALSKYGAATFTRTGKAAQVTIQSSGTFSSKFQVDNNNRLLLQQVSLPELPGEYSMKVTGEGCVYLQTSLKYNILPEKEEFPFALGVQTLPQTCDEPKAHTSFQISLSVSYTGSRSASNMAIVDVKMVSGFIPLKPTVKMLERSNHVSRTEVSSNHVLIYLDKVSNQTLSLFFTVLQDVPVRDLKPAIVKVYDYYETDEFAIAEYNAPCSKDLGNA
As for B2, the “rate of reaction with PMN cell proteases” value with PMN cell proteases was “relatively slow rate”.
